Results on three molecules are retold here after patent US20140087995A1 (published 2014).

In assay [1] the target is T1, human amylin receptor (amylin 3(a) receptor: human calcitonin receptor co-expressed with RAMP-3) (human, UniProt P30988 25-474; O60896 24-148, limits assumed).
T1 sequence (looked up) 1: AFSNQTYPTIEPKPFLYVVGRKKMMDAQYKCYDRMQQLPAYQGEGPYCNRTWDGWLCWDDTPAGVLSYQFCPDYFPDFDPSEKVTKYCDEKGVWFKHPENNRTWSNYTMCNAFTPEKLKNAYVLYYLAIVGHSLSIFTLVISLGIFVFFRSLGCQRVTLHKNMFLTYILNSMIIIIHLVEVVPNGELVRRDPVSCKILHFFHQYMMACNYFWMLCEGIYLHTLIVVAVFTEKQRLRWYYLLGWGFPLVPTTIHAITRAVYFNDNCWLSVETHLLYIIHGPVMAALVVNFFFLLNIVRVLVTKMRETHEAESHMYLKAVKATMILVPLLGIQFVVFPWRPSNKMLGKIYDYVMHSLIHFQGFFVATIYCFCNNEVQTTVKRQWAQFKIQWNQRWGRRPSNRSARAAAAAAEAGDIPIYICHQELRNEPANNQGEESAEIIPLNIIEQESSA
T1 sequence (looked up) 2: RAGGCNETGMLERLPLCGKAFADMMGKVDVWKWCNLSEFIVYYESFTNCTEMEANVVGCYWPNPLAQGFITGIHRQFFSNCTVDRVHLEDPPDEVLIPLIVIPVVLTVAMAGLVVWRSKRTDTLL
Kind of assay: cell-based or functional assay.

For assay [2], the target named is T2, human calcitonin receptor (human, UniProt P30988 25-474).
T2 sequence (looked up): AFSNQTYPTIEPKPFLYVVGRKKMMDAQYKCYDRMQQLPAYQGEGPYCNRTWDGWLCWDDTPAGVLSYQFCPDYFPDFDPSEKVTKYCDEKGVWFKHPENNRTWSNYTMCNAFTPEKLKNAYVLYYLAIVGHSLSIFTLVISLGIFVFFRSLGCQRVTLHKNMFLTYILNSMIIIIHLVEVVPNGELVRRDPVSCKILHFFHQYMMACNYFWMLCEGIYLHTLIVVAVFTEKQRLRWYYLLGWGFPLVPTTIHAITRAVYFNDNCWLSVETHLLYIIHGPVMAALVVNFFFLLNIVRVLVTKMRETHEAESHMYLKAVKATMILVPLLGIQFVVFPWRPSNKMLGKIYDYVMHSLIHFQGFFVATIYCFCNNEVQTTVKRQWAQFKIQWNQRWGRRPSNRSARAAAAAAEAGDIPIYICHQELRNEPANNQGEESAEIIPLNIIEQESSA
In words: cell-based or functional assay.

Numbered stars: 1 amine (or outer) side, 2 acyl side, 3 side chain; on linkers, the order of the positions; unused ones are H or OH. Bridge positions count the residues as written; N and C are the ends. Side chains are listed from the residue outwards. Ends that are not written are not given here. * marks the point of attachment. C20 diacid = O=C(O)CCCCCCCCCCCCCCCCCCC(=O)*; γGlu = O=C(O)[C@H](CCC(=O)[*:2])N[*:1]

B1: N^-1-[(4S)-4-carboxy-4-(19-carboxynonadecanoylamino)butanoyl]-Gly[Arg1,Arg17,Pro21,Pro27,His35]-h-amylin (peptide)
peptide: {C20 diacid-γGlu}-GRCNTATCATQRLANFLRHSSPNFGAIPSSTNVGSHTY-NH2
modifications: disulfide 3-8
SMILES: CC[C@H](C)[C@H](NC(=O)[C@H](C)NC(=O)CNC(=O)[C@H](Cc1ccccc1)NC(=O)[C@H](CC(N)=O)NC(=O)[C@@H]1CCCN1C(=O)[C@H](CO)NC(=O)[C@H](CO)NC(=O)[C@H](Cc1c[nH]cn1)NC(=O)[C@H](CCCNC(=N)N)NC(=O)[C@H](CC(C)C)NC(=O)[C@H](Cc1ccccc1)NC(=O)[C@H](CC(N)=O)NC(=O)[C@H](C)NC(=O)[C@H](CC(C)C)NC(=O)[C@H](CCCNC(=N)N)NC(=O)[C@H](CCC(N)=O)NC(=O)[C@@H](NC(=O)[C@H](C)NC(=O)[C@@H]1CSSC[C@H](NC(=O)[C@H](CCCNC(=N)N)NC(=O)CNC(=O)CC[C@H](NC(=O)CCCCCCCCCCCCCCCCCCC(=O)O)C(=O)O)C(=O)N[C@@H](CC(N)=O)C(=O)N[C@@H]([C@@H](C)O)C(=O)N[C@@H](C)C(=O)N[C@@H]([C@@H](C)O)C(=O)N1)[C@@H](C)O)C(=O)N1CCC[C@H]1C(=O)N[C@@H](CO)C(=O)N[C@@H](CO)C(=O)N[C@H](C(=O)N[C@@H](CC(N)=O)C(=O)N[C@H](C(=O)NCC(=O)N[C@@H](CO)C(=O)N[C@@H](Cc1c[nH]cn1)C(=O)N[C@H](C(=O)N[C@@H](Cc1ccc(O)cc1)C(N)=O)[C@@H](C)O)C(C)C)[C@@H](C)O
notes: 38 residues: N-terminal extension by Gly (-1G); also called compound 47
Turning to B1, the “hAmylin-R funct. EC50” value in assay [1] was 0.222 nM. Moreover, in assay [2], the “Ratio hCT/hAmylin funct. (hCTR EC50 against hAmylin-R EC50)” value stood at 6 and the “hCTR funct. EC50” value came out at 1.32 nM.

B2: N^-1-[(4S)-4-carboxy-4-(19-carboxynonadecanoylamino)butanoyl]-Gly[Arg1,Arg17,Pro21,Pro27]-h-amylin (peptide)
peptide: {C20 diacid-γGlu}-GRCNTATCATQRLANFLRHSSPNFGAIPSSTNVGSNTY-NH2
modifications: disulfide 3-8
SMILES: CC[C@H](C)[C@H](NC(=O)[C@H](C)NC(=O)CNC(=O)[C@H](Cc1ccccc1)NC(=O)[C@H](CC(N)=O)NC(=O)[C@@H]1CCCN1C(=O)[C@H](CO)NC(=O)[C@H](CO)NC(=O)[C@H](Cc1c[nH]cn1)NC(=O)[C@H](CCCNC(=N)N)NC(=O)[C@H](CC(C)C)NC(=O)[C@H](Cc1ccccc1)NC(=O)[C@H](CC(N)=O)NC(=O)[C@H](C)NC(=O)[C@H](CC(C)C)NC(=O)[C@H](CCCNC(=N)N)NC(=O)[C@H](CCC(N)=O)NC(=O)[C@@H](NC(=O)[C@H](C)NC(=O)[C@@H]1CSSC[C@H](NC(=O)[C@H](CCCNC(=N)N)NC(=O)CNC(=O)CC[C@H](NC(=O)CCCCCCCCCCCCCCCCCCC(=O)O)C(=O)O)C(=O)N[C@@H](CC(N)=O)C(=O)N[C@@H]([C@@H](C)O)C(=O)N[C@@H](C)C(=O)N[C@@H]([C@@H](C)O)C(=O)N1)[C@@H](C)O)C(=O)N1CCC[C@H]1C(=O)N[C@@H](CO)C(=O)N[C@@H](CO)C(=O)N[C@H](C(=O)N[C@@H](CC(N)=O)C(=O)N[C@H](C(=O)NCC(=O)N[C@@H](CO)C(=O)N[C@@H](CC(N)=O)C(=O)N[C@H](C(=O)N[C@@H](Cc1ccc(O)cc1)C(N)=O)[C@@H](C)O)C(C)C)[C@@H](C)O
notes: 38 residues: N-terminal extension by Gly (-1G); also called compound 46
B2: in assay [1], the “hAmylin-R funct. EC50” value amounted to 0.088 nM. In assay [2], the “Ratio hCT/hAmylin funct. (hCTR EC50 against hAmylin-R EC50)” value was determined as 10.2 and the “hCTR funct. EC50” value amounted to 0.899 nM.

B3: N^ε1-[(4S)-4-carboxy-4-(19-carboxynonadecanoylamino)butanoyl]-[Arg17,Pro21,Pro27]-h-amylin (peptide)
peptide: K([γGlu-C20 diacid])CNTATCATQRLANFLRHSSPNFGAIPSSTNVGSNTY-NH2
modifications: disulfide 2-7; N-terminus assumed
SMILES: CC[C@H](C)[C@H](NC(=O)[C@H](C)NC(=O)CNC(=O)[C@H](Cc1ccccc1)NC(=O)[C@H](CC(N)=O)NC(=O)[C@@H]1CCCN1C(=O)[C@H](CO)NC(=O)[C@H](CO)NC(=O)[C@H](Cc1c[nH]cn1)NC(=O)[C@H](CCCNC(=N)N)NC(=O)[C@H](CC(C)C)NC(=O)[C@H](Cc1ccccc1)NC(=O)[C@H](CC(N)=O)NC(=O)[C@H](C)NC(=O)[C@H](CC(C)C)NC(=O)[C@H](CCCNC(=N)N)NC(=O)[C@H](CCC(N)=O)NC(=O)[C@@H](NC(=O)[C@H](C)NC(=O)[C@@H]1CSSC[C@H](NC(=O)[C@@H](N)CCCCNC(=O)CC[C@H](NC(=O)CCCCCCCCCCCCCCCCCCC(=O)O)C(=O)O)C(=O)N[C@@H](CC(N)=O)C(=O)N[C@@H]([C@@H](C)O)C(=O)N[C@@H](C)C(=O)N[C@@H]([C@@H](C)O)C(=O)N1)[C@@H](C)O)C(=O)N1CCC[C@H]1C(=O)N[C@@H](CO)C(=O)N[C@@H](CO)C(=O)N[C@H](C(=O)N[C@@H](CC(N)=O)C(=O)N[C@H](C(=O)NCC(=O)N[C@@H](CO)C(=O)N[C@@H](CC(N)=O)C(=O)N[C@H](C(=O)N[C@@H](Cc1ccc(O)cc1)C(N)=O)[C@@H](C)O)C(C)C)[C@@H](C)O
notes: also called compound 48
For B3, the “hAmylin-R funct. EC50” value in assay [1] stood at 0.116 nM. For the same molecule, in assay [2], the “Ratio hCT/hAmylin funct. (hCTR EC50 against hAmylin-R EC50)” value turned out to be 17 and the “hCTR funct. EC50” value was determined as 1.97 nM.
